From publication doi:10.1101/426874v1

Substrate: O=C(O)C(=O)O
Test: purified protein
Details: typical values given as a range; decarboxylase activity; Mn enzyme

B1: Oxalate Decarboxylase (OxDC), WT, His6-tagged (Bacillus subtilis subsp. subtilis str. 168) (protein)
chain: MKKQNDIPQPIRGDKGATVKIPRNIERDRQNPDMLVPPETDHGTVSNMKFSFSDTHNRLEKGGYAREVTVRELPISENLASVNMRLKPGAIRELHWHKEAEWAYMIYGSARVTIVDEKGRSFIDDVGEGDLWYFPSGLPHSIQALEEGAEFLLVFDDGSFSENSTFQLTDWLAHTPKEVIAANFGVTKEEISNLPGKEKYIFENQLPGSLKDDIVEGPNGEVPYPFTYRLLEQEPIESEGGKVYIADSTNFKVSKTIASALVTVEPGAMRELHWHPNTHEWQYYISGKARMTVFASDGHARTFNYQAGDVGYVPFAMGHYVENIGDEPLVFLEIFKDDHYADVSLNQWLAMLPETFVQAHLDLGKDFTDVLSKEKHPVVKKKCSK
  kcat: 50 − 60 s^-1
